Each block holds one binder with its values, some of them ahead of it.
Columns and labels:
[1] = target: PD-1 ligand (PD-L1) fused to an intracellular monomeric green fluorescent protein (mGFP), Q9NZQ7; test: DNA-PAINT super-resolution microscopy with nearest-neighbour analysis (SPINNA); CHO cells co-expressing CD80-mCherry and PD-L1-mEGFP, fixed with 4% PFA; labelled with anti-mCherry and anti-GFP nanobodies; two-round Exchange-PAINT, ~3 nm localization precision; model of monomers, homodimers …; conditions: other: DNA-PAINT super-resolution microscopy with nearest-neighbour analysis (SPINNA)
Sequence of PD-1 ligand (PD-L1) fused to an intracellular monomeric green fluorescent protein (mGFP), Q9NZQ7 (Q9NZQ7 19-290): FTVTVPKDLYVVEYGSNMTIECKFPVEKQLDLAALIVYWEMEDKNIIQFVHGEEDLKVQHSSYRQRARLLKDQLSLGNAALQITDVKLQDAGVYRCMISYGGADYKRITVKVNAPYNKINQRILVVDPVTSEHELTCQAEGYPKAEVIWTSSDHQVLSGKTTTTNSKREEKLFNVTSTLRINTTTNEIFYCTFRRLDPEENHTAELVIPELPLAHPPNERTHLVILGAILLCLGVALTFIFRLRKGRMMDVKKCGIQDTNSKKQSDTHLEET

[2] = target: T1, CD80 fused to intracellular monomeric Cherry (mCherry), P33681; test: DNA-PAINT super-resolution microscopy with nearest-neighbour analysis (SPINNA); CHO cells co-expressing CD80-mCherry and PD-L1-mEGFP, fixed with 4% PFA; labelled with anti-mCherry and anti-GFP nanobodies; two-round Exchange-PAINT, ~3 nm localization precision; model of monomers, homodimers and heterodimers fitted to nearest-neighbour distances with density masks; 3 cells; conditions: remark: other sources report otherwise
T1 chain: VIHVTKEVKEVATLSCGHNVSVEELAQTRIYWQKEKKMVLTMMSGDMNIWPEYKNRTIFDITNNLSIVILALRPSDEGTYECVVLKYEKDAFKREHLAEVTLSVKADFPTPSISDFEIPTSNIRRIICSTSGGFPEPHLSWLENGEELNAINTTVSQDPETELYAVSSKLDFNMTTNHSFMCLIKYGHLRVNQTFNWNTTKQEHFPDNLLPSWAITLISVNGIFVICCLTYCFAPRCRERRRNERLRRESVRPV

[3] = target: T1, CD80 fused to intracellular monomeric …; test: as above; conditions: remark: other sources report otherwise

B1: CD80 fused to intracellular monomeric Cherry (mCherry) (protein)
chain: T1 chain
percent of all molecules in heterodimers [1]: PD-L1 and CD80 heterodimers (27 ± 5) %

percent of all molecules in homodimers [2]: 11%
percent of all molecules in homodimers [3]: 9%
B2: CD80 fused to intracellular monomeric Cherry (mCherry), P33681 35-288 (ligand)
chain: T1 chain

Reference: article PMC12056017
